Target: recombinant human TNFa (human, UniProt P01375 77-233, 125I label (only in the receptor inhibition assay))
Assay: cell-based or functional assay

Sequence of recombinant human TNFa (P01375 77-233 limits assumed): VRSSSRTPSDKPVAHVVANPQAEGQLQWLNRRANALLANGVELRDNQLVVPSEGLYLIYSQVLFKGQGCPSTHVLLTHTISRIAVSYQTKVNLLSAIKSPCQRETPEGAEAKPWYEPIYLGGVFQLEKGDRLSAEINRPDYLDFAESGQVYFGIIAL

B1: TNV196 (antibody, V domains shown)
VH: QVQLVESGGGVVQPGRSLRLSCAASGFTFSSYAMHWVRQAPGKGLEWVAFISYDGSNKKSADSVKGRFTVSRDNSKNTLFLQMNSLRAEDTAVFYCARDRGIGAGGNYYYYGMDVWGQGTTVTVSS
VL: EIVLTQSPATLSLSPGERATLSCRASQSVYSYLAWYQQKPGQAPRLLIYDASNRATGIPARFSGSGSGTDFTLTISSLEPEDFAVYYCQQRSNWPPFTFGPGTKVDIK
B1 was tested, and the “neutralizing TNFa bioactivity” value was 4 fold.

From patent WO2021028752A1 (dated 2021)
